Test results from PMC9482650, “Quantitative fragmentomics allow affinity mapping of interactomes” (Nature Communications, 2022).

T1: APBA1_1, Q02410
T1 sequence (Q02410 651-752, limits assumed, looked up): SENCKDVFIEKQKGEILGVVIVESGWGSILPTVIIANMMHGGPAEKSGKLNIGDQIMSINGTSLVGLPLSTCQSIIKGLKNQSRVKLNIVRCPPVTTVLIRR

T2: DLG3_3, Q92796
T2 sequence (Q92796 374-475, limits assumed, looked up): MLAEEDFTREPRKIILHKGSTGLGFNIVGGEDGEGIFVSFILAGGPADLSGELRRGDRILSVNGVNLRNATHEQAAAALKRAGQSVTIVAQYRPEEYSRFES

T3: GRIP1_4, Q9Y3R0
T3 sequence (Q9Y3R0 467-571, limits assumed, looked up): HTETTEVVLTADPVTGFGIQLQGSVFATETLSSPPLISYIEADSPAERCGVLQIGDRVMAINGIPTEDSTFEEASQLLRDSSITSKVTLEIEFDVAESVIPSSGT

T4: LIN7A, O14910
T4 sequence (O14910 103-200, limits assumed, looked up): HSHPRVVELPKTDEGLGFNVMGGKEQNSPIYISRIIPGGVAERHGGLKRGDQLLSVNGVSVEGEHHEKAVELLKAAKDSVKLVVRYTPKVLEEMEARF

T5: MPP6, Q9NZW5
T5 sequence (Q9NZW5 125-219, limits assumed, looked up): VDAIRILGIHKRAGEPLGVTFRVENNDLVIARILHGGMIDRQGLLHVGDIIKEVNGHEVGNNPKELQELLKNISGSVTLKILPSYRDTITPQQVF

T6: MPP7, Q5T2T1
T6 sequence (Q5T2T1 134-230, limits assumed, looked up): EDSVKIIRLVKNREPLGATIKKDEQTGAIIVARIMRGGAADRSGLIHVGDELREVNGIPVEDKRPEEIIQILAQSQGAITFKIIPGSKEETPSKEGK

T7: RAPGEF6, Q8TEU7
T7 sequence (Q8TEU7 525-625, limits assumed, looked up): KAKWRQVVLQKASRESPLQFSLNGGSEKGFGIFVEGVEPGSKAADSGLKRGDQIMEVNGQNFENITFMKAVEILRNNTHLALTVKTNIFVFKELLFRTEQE

T8: SNTG1, Q9NSN8
T8 sequence (Q9NSN8 52-150, limits assumed, looked up): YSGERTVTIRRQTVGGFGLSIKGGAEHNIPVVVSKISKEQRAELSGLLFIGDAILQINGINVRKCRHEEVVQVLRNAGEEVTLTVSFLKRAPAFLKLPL


Key:
Test in all cases: holdup assay
Set-up in all cases: key: below the threshold = too weak to quantify, mostly under pKd 3.1 to 4
Details in all cases: plain residues with an end cap or a label only (N-terminal biotin on a linker: ado-ado)
APBA1_1, Q02410 = target: T1, APBA1_1, Q02410
CASK, O14936 = target: CASK, O14936
DLG1_3, Q12959 = target: DLG1_3, Q12959
DLG3_3, Q92796 = target: T2, DLG3_3, Q92796
FRMPD2_1, Q68DX3 = target: FRMPD2_1, Q68DX3
FRMPD3, Q5JV73 = target: FRMPD3, Q5JV73
GRIP1_4, Q9Y3R0 = target: T3, GRIP1_4, Q9Y3R0
GRIP2_4, Q9C0E4 = target: GRIP2_4, Q9C0E4
GRIP2_5, Q9C0E4 = target: GRIP2_5, Q9C0E4
GRIP2_6, Q9C0E4 = target: GRIP2_6, Q9C0E4
HTRA1, Q92743 = target: HTRA1, Q92743
HTRA2, O43464 = target: HTRA2, O43464
IL16_3, Q14005 = target: IL16_3, Q14005
IL16_4, Q14005 = target: IL16_4, Q14005
Inadl_9, Q8NI35 = target: Inadl_9, Q8NI35
LDB3, O75112 = target: LDB3, O75112
LIMK2, P53671 = target: LIMK2, P53671
LIN7A, O14910 = target: T4, LIN7A, O14910
LNX1_1, Q8TBB1 = target: LNX1_1, Q8TBB1
LNX1_3, Q8TBB1 = target: LNX1_3, Q8TBB1
MAGI1_1, Q96QZ7 = target: MAGI1_1, Q96QZ7
MAGI1_2, Q96QZ7 = target: MAGI1_2, Q96QZ7
MAST1, Q9Y2H9 = target: MAST1, Q9Y2H9
MPP6, Q9NZW5 = target: T5, MPP6, Q9NZW5
MPP7, Q5T2T1 = target: T6, MPP7, Q5T2T1
NHERF4_4, Q86UT5 = target: NHERF4_4, Q86UT5
PDZRN4_1, Q6ZMN7 = target: PDZRN4_1, Q6ZMN7
RAPGEF6, Q8TEU7 = target: T7, RAPGEF6, Q8TEU7
SNTG1, Q9NSN8 = target: T8, SNTG1, Q9NSN8

Sequence of NHERF4_4, Q86UT5 (Q86UT5 464-550): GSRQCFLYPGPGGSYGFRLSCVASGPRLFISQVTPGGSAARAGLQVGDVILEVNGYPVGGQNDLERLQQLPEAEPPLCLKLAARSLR
Sequence of MAST1, Q9Y2H9 (Q9Y2H9 962-1065): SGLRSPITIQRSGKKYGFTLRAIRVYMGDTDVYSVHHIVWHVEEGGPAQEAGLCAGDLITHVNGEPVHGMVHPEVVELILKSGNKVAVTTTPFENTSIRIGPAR
Sequence of FRMPD2_1, Q68DX3 (Q68DX3 770-861): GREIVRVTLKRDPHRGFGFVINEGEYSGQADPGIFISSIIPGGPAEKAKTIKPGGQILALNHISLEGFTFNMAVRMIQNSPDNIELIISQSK
Sequence of CASK, O14936 (O14936 487-570): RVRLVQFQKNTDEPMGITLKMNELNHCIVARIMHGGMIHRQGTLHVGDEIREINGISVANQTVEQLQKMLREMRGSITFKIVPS
Sequence of LDB3, O75112 (O75112 1-94): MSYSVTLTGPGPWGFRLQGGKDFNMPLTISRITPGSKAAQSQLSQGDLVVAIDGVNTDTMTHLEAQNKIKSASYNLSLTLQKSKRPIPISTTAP
Sequence of MAGI1_1, Q96QZ7 (Q96QZ7 1-106): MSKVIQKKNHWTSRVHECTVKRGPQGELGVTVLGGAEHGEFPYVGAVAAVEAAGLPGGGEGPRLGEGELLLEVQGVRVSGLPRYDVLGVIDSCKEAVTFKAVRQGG
Sequence of Inadl_9, Q8NI35 (Q8NI35 1530-1615): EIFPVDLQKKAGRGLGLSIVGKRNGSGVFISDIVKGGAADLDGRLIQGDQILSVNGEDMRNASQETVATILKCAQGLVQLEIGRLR
Sequence of PDZRN4_1, Q6ZMN7 (Q6ZMN7 213-318): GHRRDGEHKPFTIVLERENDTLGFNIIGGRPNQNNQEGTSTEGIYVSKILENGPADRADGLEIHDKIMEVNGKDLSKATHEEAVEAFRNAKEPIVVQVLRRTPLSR
Sequence of GRIP2_6, Q9C0E4 (Q9C0E4 648-740): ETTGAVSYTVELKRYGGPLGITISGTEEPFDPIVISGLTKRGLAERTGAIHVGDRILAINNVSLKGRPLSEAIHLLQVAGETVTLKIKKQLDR
Sequence of IL16_3, Q14005 (Q14005 1107-1207): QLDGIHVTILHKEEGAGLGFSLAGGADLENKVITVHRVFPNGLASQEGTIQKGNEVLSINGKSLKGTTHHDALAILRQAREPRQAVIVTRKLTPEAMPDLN
Sequence of LIMK2, P53671 (P53671 143-248): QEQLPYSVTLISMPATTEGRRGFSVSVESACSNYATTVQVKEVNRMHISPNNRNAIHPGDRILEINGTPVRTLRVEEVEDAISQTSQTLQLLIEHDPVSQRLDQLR
Sequence of GRIP2_4, Q9C0E4 (Q9C0E4 446-548): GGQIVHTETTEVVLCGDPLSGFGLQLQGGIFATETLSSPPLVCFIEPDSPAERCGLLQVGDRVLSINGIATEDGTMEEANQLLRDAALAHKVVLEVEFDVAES
Sequence of DLG1_3, Q12959 (Q12959 457-571): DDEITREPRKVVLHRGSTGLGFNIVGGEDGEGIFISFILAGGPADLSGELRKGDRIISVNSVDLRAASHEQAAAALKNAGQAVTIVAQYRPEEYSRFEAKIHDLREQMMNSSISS
Sequence of HTRA1, Q92743 (Q92743 360-477): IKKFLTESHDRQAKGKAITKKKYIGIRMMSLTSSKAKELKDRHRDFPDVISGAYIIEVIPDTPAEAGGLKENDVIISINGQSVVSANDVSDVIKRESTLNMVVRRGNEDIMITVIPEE
Sequence of MAGI1_2, Q96QZ7 (Q96QZ7 456-580): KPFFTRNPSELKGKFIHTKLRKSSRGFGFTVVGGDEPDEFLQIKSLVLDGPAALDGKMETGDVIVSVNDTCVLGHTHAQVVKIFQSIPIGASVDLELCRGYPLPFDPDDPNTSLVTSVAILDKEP
Sequence of HTRA2, O43464 (O43464 355-458): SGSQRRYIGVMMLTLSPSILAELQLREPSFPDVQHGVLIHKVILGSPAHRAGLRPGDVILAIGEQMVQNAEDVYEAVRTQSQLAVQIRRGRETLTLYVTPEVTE
Sequence of GRIP2_5, Q9C0E4 (Q9C0E4 544-642): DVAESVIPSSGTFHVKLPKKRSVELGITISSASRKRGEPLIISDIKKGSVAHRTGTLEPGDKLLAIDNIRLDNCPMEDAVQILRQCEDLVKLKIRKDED
Sequence of IL16_4, Q14005 (Q14005 1229-1329): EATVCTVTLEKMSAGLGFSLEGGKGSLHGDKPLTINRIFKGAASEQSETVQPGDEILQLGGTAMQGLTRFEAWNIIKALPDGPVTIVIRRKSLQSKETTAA
Sequence of LNX1_3, Q8TBB1 (Q8TBB1 500-596): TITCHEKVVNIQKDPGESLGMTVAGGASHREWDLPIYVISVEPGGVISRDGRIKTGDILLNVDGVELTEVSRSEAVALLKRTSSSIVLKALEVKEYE
Sequence of FRMPD3, Q5JV73 (Q5JV73 12-100): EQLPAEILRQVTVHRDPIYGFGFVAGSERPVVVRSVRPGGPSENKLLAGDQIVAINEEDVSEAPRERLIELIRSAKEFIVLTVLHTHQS
Sequence of LNX1_1, Q8TBB1 (Q8TBB1 261-371): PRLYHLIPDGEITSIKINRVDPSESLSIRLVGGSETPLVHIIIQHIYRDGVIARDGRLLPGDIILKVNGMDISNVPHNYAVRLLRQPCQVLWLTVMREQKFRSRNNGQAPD

Row | pKd (APBA1_1, Q02410) | pKd (CASK, O14936) | pKd (DLG1_3, Q12959) | pKd (DLG3_3, Q92796) | pKd (FRMPD2_1, Q68DX3) | pKd (FRMPD3, Q5JV73) | pKd (GRIP1_4, Q9Y3R0) | pKd (GRIP2_4, Q9C0E4) | pKd (GRIP2_5, Q9C0E4) | pKd (GRIP2_6, Q9C0E4) | pKd (HTRA1, Q92743) | pKd (HTRA2, O43464) | pKd (IL16_3, Q14005) | pKd (IL16_4, Q14005) | pKd (Inadl_9, Q8NI35) | pKd (LDB3, O75112) | pKd (LIMK2, P53671) | pKd (LIN7A, O14910) | pKd (LNX1_1, Q8TBB1) | pKd (LNX1_3, Q8TBB1) | Binder | other results
1 | below the threshold | below the threshold | 3.96 | 4.4 | 3.93 | below the threshold | below the threshold | below the threshold | below the threshold | below the threshold | below the threshold | below the threshold | below the threshold | below the threshold | 3.83 | below the threshold | below the threshold | below the threshold | below the threshold | below the threshold | FHSIKQSTAV [CRHR1, P34998] | pKd (MAGI1_1, Q96QZ7): below the threshold; pKd (MAGI1_2, Q96QZ7): 5.05; pKd (MAST1, Q9Y2H9): 4.74; pKd (MPP6, Q9NZW5): 3.7; pKd (MPP7, Q5T2T1): below the threshold; pKd (NHERF4_4, Q86UT5): 3.88; pKd (PDZRN4_1, Q6ZMN7): 4.1; pKd (RAPGEF6, Q8TEU7): below the threshold; pKd (SNTG1, Q9NSN8): 3.64
2 | below the threshold | below the threshold | 4.08 | 4.56 | 3.54 | below the threshold | 3.48 | below the threshold | 3.49 | below the threshold | 4.6 | below the threshold | below the threshold | below the threshold | 3.63 | below the threshold | below the threshold | 3.52 | 3.69 | below the threshold | ATKDKKITTV [EXOC4, Q96A65] | pKd (MAGI1_1, Q96QZ7): 3.61; pKd (MAGI1_2, Q96QZ7): 4.91; pKd (MAST1, Q9Y2H9): below the threshold; pKd (MPP6, Q9NZW5): below the threshold; pKd (MPP7, Q5T2T1): below the threshold; pKd (NHERF4_4, Q86UT5): 3.99; pKd (PDZRN4_1, Q6ZMN7): 3.82; pKd (RAPGEF6, Q8TEU7): below the threshold; pKd (SNTG1, Q9NSN8): 3.72
3 | below the threshold | below the threshold | below the threshold | below the threshold | 3.53 | below the threshold | below the threshold | below the threshold | below the threshold | below the threshold | 3.85 | below the threshold | below the threshold | below the threshold | below the threshold | below the threshold | below the threshold | below the threshold | below the threshold | below the threshold | GSQSQVETEA [FKBP4, Q02790] | pKd (MAGI1_1, Q96QZ7): below the threshold; pKd (MAGI1_2, Q96QZ7): below the threshold; pKd (MAST1, Q9Y2H9): 3.96; pKd (MPP6, Q9NZW5): below the threshold; pKd (MPP7, Q5T2T1): below the threshold; pKd (NHERF4_4, Q86UT5): below the threshold; pKd (PDZRN4_1, Q6ZMN7): below the threshold; pKd (RAPGEF6, Q8TEU7): below the threshold; pKd (SNTG1, Q9NSN8): below the threshold
